The values that follow come from patent publication US20260015631.

This data set concerns CyCAST TnsD (with TnsAB, TnsC) (Cyanothece sp. PCC 7425). The data set can be described thus: cell_activity. Particulars: without TniQ; 0.0006% with TniQ; E. coli.

Substance pTarget with tRNA-Leu came in with an activity of 0.008 % insertion.
